Assay results reported in patent US20230250190A1 (published 2023).

Experiments:
Assay in all cases: glycopeptide array
T9 (Tn-MUC1) = target: T1, T9 (Tn-MUC1) (PAPGSTAPPAHGVT(α-GalNAc)S(α-GalNAc)APDTRPAPG-OH)
T1 peptide: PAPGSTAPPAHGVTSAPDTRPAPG

T8 (Tn-MUC1) = target: T2, T8 (Tn-MUC1) (PAPGST(α-GalNAc)APPAHGVTSAPDT(α-GalNAc)RPAPG-OH)
T2 peptide: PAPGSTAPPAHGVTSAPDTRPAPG

T4 (Tn-MUC1) = target: T3, T4 (Tn-MUC1) (PAPGSTAPPAHGVT(α-GalNAc)SAPDTRPAPG-OH)
T3 peptide: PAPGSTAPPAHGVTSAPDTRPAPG

T3 (Tn-MUC1) = target: T4, T3 (Tn-MUC1) (PAPGST(α-GalNAc)APPAHGVTSAPDTRPAPG-OH)
T4 peptide: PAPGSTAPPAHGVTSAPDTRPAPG

T11 (Tn-MUC1) = target: T5, T11 (Tn-MUC1) (PAPGSTAPPAHGVT(α-GalNAc)SAPDT(α-GalNAc)RPAPG-OH)
T5 peptide: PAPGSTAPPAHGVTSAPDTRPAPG

S11 (sTn-MUC1) = target: T6, S11 (sTn-MUC1) (PAPGSTAPPAHGVT(Neu5Ac-α(2-6)-GalNAc)SAPDT(Neu5Ac-a(2-6)-GalNAc)RPAPG-OH)
T6 peptide: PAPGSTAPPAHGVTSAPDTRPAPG

S9 (sTn-MUC1) = target: T7, S9 (sTn-MUC1) (PAPGSTAPPAHGVT(Neu5Ac-α(2-6)-GalNAc)S(Neu5Ac-a(2-6)-GalNAc)APDTRPAPG-OH)
T7 peptide: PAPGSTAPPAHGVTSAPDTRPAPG

S4 (sTn-MUC1) = target: T8, S4 (sTn-MUC1) (PAPGSTAPPAHGVT(Neu5Ac-α(2-6)-GalNAc)SAPDTRPAPG-OH)
T8 peptide: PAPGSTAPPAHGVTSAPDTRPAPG

T7 (Tn-MUC1) = target: T9, T7 (Tn-MUC1) (PAPGS(α-GalNAc)T(α-GalNAc)APPAHGVTSAPDTRPAPG-OH)
T9 peptide: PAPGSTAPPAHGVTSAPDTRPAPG

B1: SEQ ID NO 78 (bivalent monospecific MUC1 IgG) (antibody, V domains shown)
VH: QVQLVQSGAEVKKPGTSVKVSCKASGYSFIHYYIHWVRQAPGQGLEWVGVINPFDGSTNYAQKFQGRVTVTRDTSTSAVFMDLSSLRSEDTAVYYCARDNMIGYVLFDYWGQGTLVTVSS
VL: not shown
- EC50 (T9 (Tn-MUC1)): 0.032 µg/mL
- EC50 (T8 (Tn-MUC1)): 0.032 µg/mL
- EC50 (T4 (Tn-MUC1)): 0.034 µg/mL
- EC50 (T3 (Tn-MUC1)): 37.9 µg/mL
- EC50 (T11 (Tn-MUC1)): 0.041 µg/mL
- EC50 (S11 (sTn-MUC1)): 0.477 µg/mL
- EC50 (S9 (sTn-MUC1)): 0.067 µg/mL
- EC50 (S4 (sTn-MUC1)): 0.039 µg/mL

B2: SEQ ID NO 45 (bivalent monospecific MUC1 IgG) (antibody, V domains shown)
VH: QVQLVESGTEVKKPGASVKVSCKASGYSFIHYYIHWVRQAPGRGLEWMGVINPFDGSTNSAQNFQGRVTVTRDTSTSTVFMDLSSLRSEDTAVYYCARDNMLGYVLFDHWGQGTLVTVSS
VL: not shown
- EC50 (T9 (Tn-MUC1)): 0.083 µg/mL
- EC50 (T8 (Tn-MUC1)): 0.088 µg/mL
- EC50 (T4 (Tn-MUC1)): 0.084 µg/mL
- EC50 (T3 (Tn-MUC1)): 52.2 µg/mL
- EC50 (T11 (Tn-MUC1)): 0.093 µg/mL
- EC50 (S11 (sTn-MUC1)): 4.06 µg/mL
- EC50 (S9 (sTn-MUC1)): 0.135 µg/mL
- EC50 (S4 (sTn-MUC1)): 0.089 µg/mL

B3: SEQ ID NO 9 (bivalent monospecific MUC1 IgG) (antibody, V domains shown)
VH: QVQLVQSGAEVKKPGASVKVSCKASGYTFNRHYIQWVRQAPGQGLEWMGTINPYDGSTHYAQKFQGRVTLTRDTSTTTVYMELSSLRSEDTAVYYCARDYMIGYVVFDYWGQGTLVTVSS
VL: not shown
- EC50 (T9 (Tn-MUC1)): 0.039 µg/mL
- EC50 (T8 (Tn-MUC1)): 0.034 µg/mL
- EC50 (T4 (Tn-MUC1)): 0.031 µg/mL
- EC50 (T3 (Tn-MUC1)): 21.6 µg/mL
- EC50 (T11 (Tn-MUC1)): 0.041 µg/mL
- EC50 (T7 (Tn-MUC1)): 64 µg/mL
- EC50 (S11 (sTn-MUC1)): 0.053 µg/mL
- EC50 (S9 (sTn-MUC1)): 0.046 µg/mL
- EC50 (S4 (sTn-MUC1)): 0.031 µg/mL
